US20210253678A1 (CUREAB, published 2021)

Experiments:
[1] = target: T1, human GP73 (GOLM1, GOLPH2) in Alexander (PLC/PRF/5) cells (human, UniProt Q8NBJ4 1-401); assay: immunofluorescence on fixed, saponin treated Alexander cells
T1 construct: Endogenous protein of the cell line; cells were fixed with paraformaldehyde and treated with saponin
T1 sequence: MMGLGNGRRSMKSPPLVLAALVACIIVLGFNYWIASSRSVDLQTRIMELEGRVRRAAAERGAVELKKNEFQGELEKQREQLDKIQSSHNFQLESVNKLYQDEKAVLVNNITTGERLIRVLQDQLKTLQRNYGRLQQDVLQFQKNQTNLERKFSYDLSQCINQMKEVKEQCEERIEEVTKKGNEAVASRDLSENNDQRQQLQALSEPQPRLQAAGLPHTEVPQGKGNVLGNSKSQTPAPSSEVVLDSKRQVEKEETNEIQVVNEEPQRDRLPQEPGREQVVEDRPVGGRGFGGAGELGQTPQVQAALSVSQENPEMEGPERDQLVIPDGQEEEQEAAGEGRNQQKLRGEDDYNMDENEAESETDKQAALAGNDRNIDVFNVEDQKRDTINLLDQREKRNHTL
Description: Alexander cells were grown on 4 chamber slides, fixed with 4% paraformaldehyde, treated with 0.2% Saponin and blocked with 10% bovine serum albumin. Cells were incubated for one hour with goat anti-GP73 (santa cruz sc-48010) and mG2-2 and washed. Bound antibodies were stained with anti goat Alexa Fluor 488 (abeam ab150129) and anti mouse Alexa Fluor 647 (abeam ab150115). Nuclei were treated with DAPI.

[2] = target: T2, GP73 (endogenous human GP73 on HEK 293, HuH7, JHH4 and DU145 cells and in human tissue sections); assay: immunohistochemistry, paraffin section of hepatitis liver, anti-mouse secondary
T2 construct: One entry for all cell lines and tissues; also called GOLM1; GOLPH2
T2 antigen: T1 sequence
From the text: FIG. 5 Immunohistochemical staining of tissues with the anti-rGOLPH antibody G2-2 and controls. Paraffin embedded tissues of A normal liver B hepatitis liver C and D hepatocellular carcinoma (HCC) were stained with murine G2-2 (mG2-2) (A,B,C) or anti-GP73 antibody M06A (Sigma) followed by secondary staining with an anti-mouse antibody and examined under a microscope by 40× magnification as described in Example 3.
Paraffin embedded tissues of normal liver, hepatitis liver, hepatocellular carcinoma (HCC), endometrium carcinoma, ovarian carcinoma, melanoma, small cell lung cancer and gastric cancer were stained with murine G2-2 (mG2-2) or mouse anti GOLPH (M06A Sigma) followed by secondary staining with an anti-mouse IgG. Nuclei were stained with hematoxylin (blue), cytoplasma was stained with hemalum-eosin.

[3] = target: T2, GP73 (endogenous human GP73 on HEK 293, …); assay: flow cytometry, surface staining of HEK 293 cells, axis anti-mouse APC
Description: Detection of surface staining of cells is depicted as continuous line, only secondary antibody control detection is depicted as dashed line as described in Example 4.
Different human and murine cell lines e.g. HuH7, JHH4, HEK293, HEK293-GP73-myc and Ramos were tested by Flow cytometry analysis for expression of GP73 on their cell surface and binding of G2-2, G2-1 and G2-4. […]

[4] = target: T2, GP73 (endogenous human GP73 on HEK 293, …); assay: flow cytometry of antibody left on the surface of HuH7 cells (panel title) after loading at 4°C; detection with APC anti-human Fab
Description: Cells were incubated with 10 ug/ml of G2-2 or G2-1 for one hour at 4° C. in PBS. Unbound G2-2 was washed away and cells were transferred to tissue culture medium with 10% FCS and then either warmed to 37° C. to allow internalization or maintained at 4° C. The internalization process was stopped after 15, 30, 60 or 120 minutes by transferring the cells into ice-cold buffer with 0.1% […]. Cells were stained with APC-conjugated goat anti-human Fab (Jackson Immuno) and analyzed by FACS. The residual levels of cell surface G2-2 was calculated based on the mean fluorescence intensity (MFI).

[5] = target: T3, peptide AA 36-55 of GP73 (rGP73), SSRSVDLQTRIMELEGRVRR (human, biotinylated in the ELISAs (position not given)); assay: SPR (Biacore), fit for 1:1 binding, mean of measurements 1 + 2, GP73 peptide
T3 construct: also called GP73 peptide; peptide rGP73 (GP73 AA 36 to 55)
T3 peptide: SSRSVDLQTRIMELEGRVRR

[6] = target: T3, peptide AA 36-55 of GP73 (rGP73), …; assay: peptide ELISA on coated biotinylated rGP73 AA36-55, anti mouse HRP secondary
Description: (§1) ELISA was carried out in 96 well plates coated overnight with the biotinylated peptide gp73 AA 36-55 or an unrelated peptide and blocked with 2% gelatine. Antibodies 8A10, G2-2opti (IgG2a) or isotype control antibody (IgG2a) were applied, incubated for 1.5 hours and then washed away. A secondary horse radish peroxidase labeled anti mouse antibody was added for 1 hour and after extensive washing a chromogenic substrate (TMB Amersham) was applied to detect peroxidase.

[7] = target: T4, GP73-10×His AVRR, encompassing GP73 AA36 to 401 with a R52A mutation (human, UniProt Q8NBJ4 36-401); assay: ELISA on coated GP73-His AVRR, anti mouse HRP secondary
T4 construct: also called GP73 AVRR; GP73-His AVRR
T4 sequence: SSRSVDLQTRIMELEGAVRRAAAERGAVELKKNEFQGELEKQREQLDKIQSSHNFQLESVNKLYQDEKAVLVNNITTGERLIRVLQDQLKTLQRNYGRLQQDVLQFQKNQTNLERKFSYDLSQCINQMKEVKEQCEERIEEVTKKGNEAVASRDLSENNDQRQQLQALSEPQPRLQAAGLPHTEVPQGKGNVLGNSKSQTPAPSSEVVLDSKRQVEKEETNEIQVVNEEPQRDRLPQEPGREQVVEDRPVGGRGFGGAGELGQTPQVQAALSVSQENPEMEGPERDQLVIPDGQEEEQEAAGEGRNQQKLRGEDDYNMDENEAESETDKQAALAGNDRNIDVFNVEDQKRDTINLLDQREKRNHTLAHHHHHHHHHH
Description: as §1, with “sGP73” for “the biotinylated peptide gp73 AA 36-55”, “GP73 AVRR” for “an unrelated peptide”, “antibody” for “antibody (IgG2a)”, “and” for “and then”, “Horse” for “horse”

[8] = target: T5, sGP73-10×His, encompassing GP73 AA56 to 401 (human, UniProt Q8NBJ4 56-401); assay: ELISA on coated sGP73-His, anti mouse HRP secondary
T5 construct: also called sGP73-His; sGP73-HIS
T5 sequence: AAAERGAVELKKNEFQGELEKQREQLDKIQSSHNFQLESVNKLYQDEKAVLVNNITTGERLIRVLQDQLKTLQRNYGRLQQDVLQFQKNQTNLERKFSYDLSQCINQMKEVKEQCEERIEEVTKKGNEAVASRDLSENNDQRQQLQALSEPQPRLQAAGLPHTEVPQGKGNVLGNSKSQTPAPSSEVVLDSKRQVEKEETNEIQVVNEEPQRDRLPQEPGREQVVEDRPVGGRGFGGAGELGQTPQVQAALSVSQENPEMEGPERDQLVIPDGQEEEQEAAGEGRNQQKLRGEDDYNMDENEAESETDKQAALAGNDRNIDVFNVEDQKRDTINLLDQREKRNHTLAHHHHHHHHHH
Description: as §1, with “sGP73” for “the biotinylated peptide gp73 AA 36-55”, “GP73 AVRR” for “an unrelated peptide”, “antibody” for “antibody (IgG2a)”, “and” for “and then”, “Horse” for “horse”

B1: mG2-2 (G2-2 variable regions with murine IgG2a heavy chain and human Igk light chain constant regions) (antibody)
heavy: EVQLLQSGGGVVQPGRSLRLSCAASGFTFSSYGMSWVRQAPGKGLEWVAVISYDGSNKYYADSVKGRFTISRDNSKNTLYLQMNSLRAEDTAVYYCAREGSAGMDVWGQGTTVTVSSASTTAPSVYPLAPVCGDTTGSSVTLGCLVKGYFPEPVTLTWNSGSLSSGVHTFPAVLQSDLYTLSSSVTVTSSTWPSQSITCNVAHPASSTKVDKKIEPRGPTIKPCPPCKCPAPNLLGGPSVFIFPPKIKDVLMISLSPIVTCVVVDVSEDDPDVQISWFVNNVEVHTAQTQTHREDYNSTLRVVSALPIQHQDWMSGKEFKCKVNNKDLPAPIERTISKPKGSVRAPQVYVLPPPEEEMTKKQVTLTCMVTDFMPEDIYVEWTNNGKTELNYKNTEPVLDSDGSYFMYSKLRVEKKNWVERNSYSCSVVHEGLHNHHTTKSFSRTPGK
light: DIQMTQPSSLSASPGASASLTCTLRSDISVGFHRIYWYQQKPGSPPQYLLRYKSDSDKQQGSGVPSRFSGSKDASANAGILLISGLQSDDEADYYCVIWHTSGVVFGGGTKVEIKRTVAAPSVFIFPPSDEQLKSGTASVVCLLNNFYPREAKVQWKVDNALQSGNSQESVTEQDSKDSTYSLSSTLTLSKADYEKHKVYACEVTHQGLSSPVTKSFNRGEC
notes: also called murine G2-2
binding result [1]: binds | binding result [2]: binds

B2: G2-4 (antibody, V domains shown)
VH: QVQLEESGGGLVQPGGSLRLSCATSGFTFTDYYMSWVRQPPGKALEWLGFIRNKAKGYTTEYSASVKGRFTISRDNSQSILYLQMNTLRAEDSATYYCARDPSTNYWYFDVWGAGTTVTVSS
VL: DIVLTQSPSSLAVSAGEKVTMTCKSSQSLLNSRTRKNYLAWYQQKPGQSPKLLIYWASTRESGVPDRFTGSGSGTDFTLTISSVQAEDLAVYYCKQSYNLYTFGGGTKLEIKR
binding result [3]: binds

B3: G2-2 (human IgG1 heavy chain and human Igk light chain constant regions) (antibody)
heavy: not shown
light: B1 light
notes: scFv clone from a human scFv library, cloned as human IgG1/kappa; also called G2-2-HRP (horse radish peroxidase labeled); anti-rGOLPH antibody G2-2
binding result [4]: binds | Kd [5]: 4.29 nM | koff [5]: 0.00111 s⁻¹ | kon [5]: 260000 M⁻¹ s⁻¹

B4: G2-2opti (IgG2a) (antibody, V domains shown)
VH: QVQLVQSGGGVVQPGRSLRLSCAASGFTFSSYGMHWVRQAPGKGLEWVAVISYDGSNKYYADSVKGRFTISRDNSKNTLYLQMNSLRAEDTAVYYCAREGSAGMDVWGQGTTVTVSS
VL: QAVLTQPSSLSASPGASASLTCTLRSDISVGFHRIYWYQQKPGSPPQYLLRYKSDSDKQQGSGVPSRFSGSKDASANAGILLISGLQSDDEADYYCVIWHTSGVVFGGGTKLTVL
notes: 'a chimeric human/murine version with a murine CH2 and CH2'
binding result [6]: binds | binding result [7]: binds | binding result [8]: no binding (tested: 5.0 ug/ml)

B5: G2-1 (human IgG1 heavy chain and human Igk light chain constant regions) (antibody, V domains shown)
VH: EVQLLESGGGVVQPGRSLRLSCAASGFTFSSYAMSWVRQAPGKGLEWVSVISYDGSNKAYADSVKGRFTISRDNSKNTLYLQMNSLRAEDTAVYYCARGRSYYDSSGYLFDYWGQGTLVTVSS
VL: DIQMTQPHSVSESVGKTVIITCTGGGGSIDTNYVQWYQQRPGSAPVTLIYEDDQRPFGVPDRFSAAIDTSSSSASLTISGLTAEDEATYYCQSSHSTAVVFGGGTKVEIKR
notes: scFv clone from a human scFv library, cloned as human IgG1/kappa; also called G2-1-HRP (horse radish peroxidase labeled)
Kd [5]: 3.02 nM | koff [5]: 0.00198 s⁻¹ | kon [5]: 635000 M⁻¹ s⁻¹
